{"source": "the nanobody polyreactivity screen of Harvey et al. (2022)", "data": [{"test": "yeast display, Sf9 membrane polyspecificity reagent, FACS + sequencing; frameworks hold sequencing errors", "method_in_brief": "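After 36–48 hours of galactose induction, yeast (Saccharomyces cerevisiae BJ5465) displaying a synthetic nanobody library were stained at 4 °C for 1 hour with 10% biotinylated, detergent-solubilized Sf9 membrane reagent. Streptavidin microbeads enriched the stained cells before FACS sorting into low and high (top ~1%) gates on anti-HA and streptavidin fluorescence. Each clone's polyreactivity label reflects its gate of origin.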", "values": [{"sequence": "QVHLVESGGGLLQAGGILSLSCAASGITIIVYVMGWYRQAPGKERELVATITYDDSTYADSVKGRFTISRDNAKNTVYFQMNSLKPEDTAVYYDYWGQGTQVTVSS", "polyreactivity (PSR sort gate)": "low polyreactivity"}, {"sequence": "QVHLVESGGGLLQAGGSLPLSCAASGSIFYSYAMGWYRQAPGKVRELVAVISWSGGSTYYADSVKGRFTISRDNAKNTVYLQMNSLKPEDTAVYYCAADQGWEFDYWGQCTQVTVSS", "polyreactivity (PSR sort gate)": "low polyreactivity"}, {"sequence": "QVHLVESGGGLLQAGGSLRLSCAASGSTFYSYAMGWYRQAPGKERELVAAITYSDGDTYYADSVKGRFTISRDNAKNTVYLQMNSLKPEDTAVYYCAAEYQGQPGTGNLEYWGQGTQVTVSS", "polyreactivity (PSR sort gate)": "low polyreactivity"}, {"sequence": "QVHLVESGGGLLQAGGSLRLSSAASGSTFPFNAMGWYRPAPGKERELVAAIDDNGGTTYYADSVKGRFTISRDNAKNTFYLQMISLKPEDPAVYYCAAEVDTVRDCVQGMDYCGQGTQVTVSS", "polyreactivity (PSR sort gate)": "low polyreactivity"}, {"sequence": "QVHLVESGGGLVEAGGSLRLSCADSGNIFAWYAMGWYRQAPGKERELVADISSLGGSTYYADSVKGRFTISRDNATNTVYLQMNSLKPEDTEVYYCAAVWYWTQDYDYWGQGTQVTVSS", "polyreactivity (PSR sort gate)": "low polyreactivity"}, {"sequence": "QVHLVESGGGLVHAGGSLRLSSAASGSIFGANTMGWYRQAPGKERELVAGITSGARTYYADSVKGRFTISRDNAKNTVYLQMNSLKPEDTAVYYCAAKYAWRRYGFWGQGTQVTVSS", "polyreactivity (PSR sort gate)": "high polyreactivity"}, {"sequence": "QVHLVESGGGLVHAGGSLRLTCAASGITSLRYAMGWYRQAPGKEREFVAAIRTIGGSTYYADSVKGRFTISRDNAKNTVYLEMNSLKPEDTPVYYCAALYFLYRSGSSHLDSWGQGTQVTVSS", "polyreactivity (PSR sort gate)": "high polyreactivity"}, {"sequence": "QVHLVESGGGLVQAAGILRLSSAPSGSIFPYYAMGWYRQAPGKEREFVAAINYAGGSTYYADSVKGRFTISRDNAKNTVYLQMNSLKPEDTAVYYCNARTFGPNGKHRYGYWGQGTQVTVSS", "polyreactivity (PSR sort gate)": "high polyreactivity"}, {"sequence": "QVHLVESGGGLVQAGCSLRLSCAASGFTYYYYAIGWYRQAPGTEMELVAAISSGGSTNYADSVKGRFTISRDNANNTVYLQMNSLKPEDTAVYYCAATQPYWWAYRYDYWGQGTKVTVSS", "polyreactivity (PSR sort gate)": "low polyreactivity"}, {"sequence": "QVHLVESGGGLVQAGGCLRLSCAASGSIVGYNTMGWYRQAPGKERALVAAISSSGTSTNYPDSVKGRFTISRDNAKNTVYLQMNSLKPDDTAVFYCNTVLRVWSRSGYDYWGQGSQVTVSS", "polyreactivity (PSR sort gate)": "high polyreactivity"}, {"sequence": "QVHLVESGGGLVQAGGILRLSCAASGSIFLYYAMGWYRQAPGKERELVAAITGGGGTNYADSVKGRFTISRDNAKNTFYLQMNSLKPEDTAVYYCGADPSGQFPYSYYNYDYDYWGQGTQVTVSS", "polyreactivity (PSR sort gate)": "low polyreactivity"}, {"sequence": "QVHLVESGGGLVQAGGRLRLSCAASGFTYYRYTMGWYRQAPGKERELVAAISWNGGRTYYADSVKGRFTISRDNAKNTVYLQMNSLKPEDTAVYYCAAVQHYTNRYPAVDYWGQGTQVTVSS", "polyreactivity (PSR sort gate)": "high polyreactivity"}, {"sequence": "QVHLVESGGGLVQAGGRLRLSCAASGNTFYQYAMGWYRQAPGKERELVAAISSSGGSTYYADTVKGRFTISRDNAKNTVYLQMNSLKPEDTGVYYCATDKWYGYYYWGQGTQVTVSS", "polyreactivity (PSR sort gate)": "low polyreactivity"}, {"sequence": "QVHLVESGGGLVQAGGRLRLSCAASGRIFYTYAMGWYRQAPGKERELVAAITSGGSTYYADSVKGRFTISRDNAKNTVYLQMNSLKPEDTAVYYCNKVSYYRNEYWGQGSQVTVSS", "polyreactivity (PSR sort gate)": "high polyreactivity"}, {"sequence": "QVHLVESGGGLVQAGGSHRLSCAASGFTIHRYAMGWYRQAPGKERELVAGITRRSGSTFYADSVKGRFTISRDNAKNTVFLQMNSLKPEDTAVYYCAATVPGLHWIYDYWGQGTQVTVSS", "polyreactivity (PSR sort gate)": "high polyreactivity"}, {"sequence": "QVHLVESGGGLVQAGGSLGLSCAASGNIFSSNAMGWYTQAPGKERELVDAITRSGGSTYYADSVKGRFTISRDNAKKTVYLQLNSQKPEDTAVYYGAARHYPRNSWGYDYWGQGTQVTVSS", "polyreactivity (PSR sort gate)": "high polyreactivity"}, {"sequence": "QVHLVESGGGLVQAGGSLLLSCAASGSTQLGNAMGWYRQAPGKERELVAAISTSGDSTNYADSVKGRFTISRDNAKNTVYLEMNSLKPEDTAVYYCNAGGYLNSDVDRVGYWGQGTQVTVSS", "polyreactivity (PSR sort gate)": "low polyreactivity"}, {"sequence": "QVHLVESGGGLVQAGGSLRISCAASGSIFKGYAMGWYRQAPGKERELVAAITIDGSTYYADSVKGRFTISRDNAKNTVYLQMNSLKPEDTAVYYCDAVYLWYGSWPLHFAAYDYWGQGTQVTVSS", "polyreactivity (PSR sort gate)": "low polyreactivity"}, {"sequence": "QVHLVESGGGLVQAGGSLRISCAASGSNFSYYARGWYRQAPGKESELVAAISQSGGTTYYADSVKGRFTISRDHAKNTVYLQMNCLKPEDTAVYYCAARAPSSFDTQYYYWGLGTQVTVSS", "polyreactivity (PSR sort gate)": "low polyreactivity"}, {"sequence": "QVHLVESGGGLVQAGGSLRISCAASGSSFSIYAMGSYRQAPGKERELVAAITCTVGSTYYADSVKGRFTISRDIAKYTVYLPLNSLKPEDTAVYYFAARQVNYDYDFWGQGTQVTVSS", "polyreactivity (PSR sort gate)": "low polyreactivity"}, {"sequence": "QVHLVESGGGLVQAGGSLRISCAATGYTFLYNAMGWYRQAPGKEREFVAGIRRSVGSTYYADSVKGRFTISRDNAKNTVYLQMNSMTREDTAVYYCALVPALYRYRVGTYAYDYWGQGTQVTVSS", "polyreactivity (PSR sort gate)": "low polyreactivity"}, {"sequence": "QVHLVESGGGLVQAGGSLRLCCAASGITFQVYAKGCYRPAPGKERELVAAINWSGTRTYYADSVKGRFTISRDNAKNTVYLQMNSLKPEDTAVYYCAAAERSLGYYYWGQGTQVTVTS", "polyreactivity (PSR sort gate)": "high polyreactivity"}, {"sequence": "QVHLVESGGGLVQAGGSLRLICAASGFTFDFYAMGWYRQAPGKERELVAAISKNDGTTYYADSVKGRFTISRDNAKNTVYLQMYSLKPEDTAVYYCAAESGYPVYTYVSSGDYWGQGTQVTVSS", "polyreactivity (PSR sort gate)": "low polyreactivity"}, {"sequence": "QVHLVESGGGLVQAGGSLRLICAASGRIFIVYAMGWYRQAPGKERELVAVITGGGSTNYADSVKGRFTISRDNAKNSVYLQMNSLKPEDTAVYYCATEGYGHGGETVGGVYSDLGYWGQGTQVTVSS", "polyreactivity (PSR sort gate)": "low polyreactivity"}, {"sequence": "QVHLVESGGGLVQAGGSLRLICAASGSIYTPNAMGWYRQAPGKETELVAAISSSSDRTYYADSVTGRFTISRDNAKNTFYLQMNSLKPEDTEVYYCNADLRGHGRGTDQYIFDYWGQGTQVTVSS", "polyreactivity (PSR sort gate)": "high polyreactivity"}, {"sequence": "QVHLVESGGGLVQAGGSLRLRCAASGGTSRSYAKGWYRPAPGKERELVAAISWRGGRTYYADSVKGRFTISRDNAKNTVYFQMNRLKPEDTAVYDCAARLPGYYGIGDYWGLGTQVTVSS", "polyreactivity (PSR sort gate)": "high polyreactivity"}, {"sequence": "QVHLVESGGGLVQAGGSLRLSCAAAGRTFSSYAMAWYRQAPWQERELVAAITSGGTTYYADSVKGRFTISRDNAKNTVDLQMNSLKAEDPAFYYCARRSYLYDSYLTKKKYYDYCGQGTQVTVSS", "polyreactivity (PSR sort gate)": "low polyreactivity"}, {"sequence": "QVHLVESGGGLVQAGGSLRLSCAASGFIFEPYAMGCYRQAPWKEWELVAAISSGGSTYADSVKGRFTISRDNAKNTVYLQMISLKPEDTAVYYCAADSYYSVWGFYFWGQGTQVTVSS", "polyreactivity (PSR sort gate)": "low polyreactivity"}, {"sequence": "QVHLVESGGGLVQAGGSLRLSCAASGFIFKFDAMGWYRQAPGKEREMVAAITASSGRTNYADSVKGRFTISRDNAKNTVYLHMNSLKPEDTAVYFCAARRWPKYSAYRYDYWGQGTQVTVSS", "polyreactivity (PSR sort gate)": "high polyreactivity"}, {"sequence": "QVHLVESGGGLVQAGGSLRLSCAASGFIFKKYAMGWYRQAPGKERELVAAIDSSGSTTYADSVKGRFTISRDNAKNTVYLQMNSLKPEDTAVYYCAAPFTVYRHAPDMDYWGQGTQVTVSS", "polyreactivity (PSR sort gate)": "low polyreactivity"}, {"sequence": "QVHLVESGGGLVQAGGSLRLSCAASGFIFQYYAMGWYRQAPGKEREMVAAINRGGGTHYADSVQGRFTISRDNAKNTVYLQMNSLKPEVTAVYYCNKVYYWPGSRPSRYEYWGQGTQVTVSS", "polyreactivity (PSR sort gate)": "low polyreactivity"}, {"sequence": "QVHLVESGGGLVQAGGSLRLSCAASGFIFRIYAMGWYRQAPGKERELVAAINSSVSTSYADSVKGRFTISRDNAKNTVYLQMNSLKPEDTAVYYCAASRWPYPSYLYIVDSWGQGTQVTVSS", "polyreactivity (PSR sort gate)": "low polyreactivity"}, {"sequence": "QVHLVESGGGLVQAGGSLRLSCAASGFIFYSNMGWYRQAPGKESEFVAAITWRGGSTYADSVKRRFTISRDNAKNSVYLQMNILKPEDPAVSYCAGESYRAHTPGHPSCTRFGYWGQGTHVTVSS", "polyreactivity (PSR sort gate)": "high polyreactivity"}, {"sequence": "QVHLVESGGGLVQAGGSLRLSCAASGFTFDTYDMGWYRQAPGKERELVAAIDRSGVSTYYADSVKGRFTISRDTAKNTVYLQMNSLKQEDPAVYYCAADLWQYDIASWDYTYDYWGQGTQVTVSS", "polyreactivity (PSR sort gate)": "low polyreactivity"}, {"sequence": "QVHLVESGGGLVQAGGSLRLSCAASGFTFEGYAMGGYRQQPGKEREYADSVKGRFTISRDNAKNTVYLQMNSLKPEDTAVYYCASTSYVSSSRTIYSGFVEFEYLGQGTQVTVSS", "polyreactivity (PSR sort gate)": "low polyreactivity"}, {"sequence": "QVHLVESGGGLVQAGGSLRLSCAASGFTFESYAMGWYRQAPGKERELVAAISDGGGDTYYADSVKGRFTISRDNAKNTVYLQMNSLKQEDTAVYYCAAEWDGNWYRGAGGYDYWGQGTQVTVSS", "polyreactivity (PSR sort gate)": "low polyreactivity"}, {"sequence": "QVHLVESGGGLVQAGGSLRLSCAASGFTFNGYAMGWYRQAPGKESEMVAGITRRGGITYYADSVKGRFTISRYNAKNTVYLQMNSLKPEETAVYYCARDYIGHALIHHASLYYYWGQGTQVTVSS", "polyreactivity (PSR sort gate)": "high polyreactivity"}, {"sequence": "QVHLVESGGGLVQAGGSLRLSCAASGFTFVRNAMGWYRQAPGKERELVAAISGSGGSTYYADSVKGRFTISRDTAKNTVYLQMNSLKPEDTAVYYCAAGWTRGWSLDYYYWGQGTQVTVSS", "polyreactivity (PSR sort gate)": "high polyreactivity"}, {"sequence": "QVHLVESGGGLVQAGGSLRLSCAASGFTFVRYAMGWYRQAPGKERELVASISYSGGSTYYADSVKGRFTISRDNAKNTVYLQMNSLKPEDTAVYYCAALHRINTLLLPMDYWGQGTQVTVSS", "polyreactivity (PSR sort gate)": "high polyreactivity"}, {"sequence": "QVHLVESGGGLVQAGGSLRLSCAASGFTIAFNAMGSYRQAPGKERELVASITGGGSTNYADSVKGRFTISRDNAKNTVYLQMNSLKPEDTAVYYCAARYFWAWERDLFLEFDYWGQGTQVTVSS", "polyreactivity (PSR sort gate)": "low polyreactivity"}, {"sequence": "QVHLVESGGGLVQAGGSLRLSCAASGFTLANYAMGWYRQPPGKERELVAAIDYSGGGTYYADSVKGRFTISRDNAKNTVYLQMNSLKPEDTAVYYCAARRWSYYSAKYDYWGQGTQVTVSS", "polyreactivity (PSR sort gate)": "low polyreactivity"}, {"sequence": "QVHLVESGGGLVQAGGSLRLSCAASGGIFFPNAMGWYRQAPWKERELVAAISWSAGSTYYADSVKGRFTISRDNAKNTVYLELNSVKPEDTAVYYCAAAGSKNTVLYGYYYWGQGTQVTVSS", "polyreactivity (PSR sort gate)": "low polyreactivity"}, {"sequence": "QVHLVESGGGLVQAGGSLRLSCAASGGIFYPNAMGWYRQAPGKERELVAAISSGGGSTYYADSVKGRFTISRDNAKNTVYLQMNSLKPEDTAVYYCAASAYSLKSDVEYDYWGQGTLVTVSS", "polyreactivity (PSR sort gate)": "low polyreactivity"}]}]}
